Results reported in IntAct's records for PubMed 25910212.

B1: EF-hand domain-containing protein 1 (Homo sapiens), Q5JVL4 (parent)
chain: MVSNPVHGLPFLPGTSFKDSTKTAFHRSQTLSYRNGYAIVRRPTVGIGGDRLQFNQLSQAELDELASKAPVLTYGQPKQAPPADFIPAHVAFDKKVLKFDAYFQEDVPMSTEEQYRIRQVNIYYYLEDDSMSVIEPVVENSGILQGKLIKRQRLAKNDRGDHYHWKDLNRGINITIYGKTFRVVDCDQFTQVFLESQGIELNPPEKMALDPYTELRKQPLRKYVTPSDFDQLKQFLTFDKQVLRFYAIWDDTDSMYGECRTYIIHYYLMDDTVEIREVHERNDGRDPFPLLMNRQRVPKVLVENAKNFPQCVLEISDQEVLEWYTAKDFIVGKSLTILGRTFFIYDCDPFTRRYYKEKFGITDLPRIDVSKREPPPVKQELPPYNGFGLVEDSAQNCFALIPKAPKKDVIKMLVNDNKVLRYLAVLESPIPEDKDRRFVFSYFLATDMISIFEPPVRNSGIIGGKYLGRTKVVKPYSTVDNPVYYGPSDFFIGAVIEVFGHRFIILDTDEYVLKYMESNAAQYSPEALASIQNHVRKREAPAPEAESKQTEKDPGVQELEALIDTIQKQLKDHSCKDNIREAFQIYDKEASGYVDRDMFFKICESLNVPVDDSLVKELIRMCSHGEGKINYYNFVRAFSN
B2: Estrogen receptor beta (Homo sapiens), Q92731-3 (parent)
chain: MDIKNSPSSLNSPSSYNCSQSILPLEHGSIYIPSSYVDSHHEYPAMTFYSPAVMNYSIPSNVTNLEGGPGRQTTSPNVLWPTPGHLSPLVVHRQLSHLYAEPQKSPWCEARSLEHTLPVNRETLKRKVSGNRCASPVTGPGSKRDAHFCAVCSDYASGYHYGVWSCEGCKAFFKRSIQGHNDYICPATNQCTIDKNRRKSCQACRLRKCYEVGMVKCGSRRERCGYRLVRRQRSADEQLHCAGKAKRSGGHAPRVRELLLDALSPEQLVLTLLEAEPPHVLISRPSAPFTEASMMMSLTKLADKELVHMISWAKKIPGMRGNA
partner: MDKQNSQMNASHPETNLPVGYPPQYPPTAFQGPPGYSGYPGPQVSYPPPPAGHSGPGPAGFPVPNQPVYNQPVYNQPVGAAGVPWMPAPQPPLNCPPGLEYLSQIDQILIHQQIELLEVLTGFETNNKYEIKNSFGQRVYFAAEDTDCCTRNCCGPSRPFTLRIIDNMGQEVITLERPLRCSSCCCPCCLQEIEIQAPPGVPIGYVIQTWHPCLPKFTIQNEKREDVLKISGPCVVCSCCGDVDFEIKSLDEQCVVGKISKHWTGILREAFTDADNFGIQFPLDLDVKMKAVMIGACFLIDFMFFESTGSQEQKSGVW
B3: Keratin, type II cytoskeletal 6A (Homo sapiens), P02538 (parent)
chain: MASTSTTIRSHSSSRRGFSANSARLPGVSRSGFSSVSVSRSRGSGGLGGACGGAGFGSRSLYGLGGSKRISIGGGSCAISGGYGSRAGGSYGFGGAGSGFGFGGGAGIGFGLGGGAGLAGGFGGPGFPVCPPGGIQEVTVNQSLLTPLNLQIDPTIQRVRAEEREQIKTLNNKFASFIDKVRFLEQQNKVLETKWTLLQEQGTKTVRQNLEPLFEQYINNLRRQLDSIVGERGRLDSELRGMQDLVEDFKNKYEDEINKRTAAENEFVTLKKDVDAAYMNKVELQAKADTLTDEINFLRALYDAELSQMQTHISDTSVVLSMDNNRNLDLDSIIAEVKAQYEEIAQRSRAEAESWYQTKYEELQVTAGRHGDDLRNTKQEIAEINRMIQRLRSEIDHVKKQCANLQAAIADAEQRGEMALKDAKNKLEGLEDALQKAKQDLARLLKEYQELMNVKLALDVEIATYRKLLEGEECRLNGEGVGQVNISVVQSTVSSGYGGASGVGSGLGLGGGSSYSYGSGLGVGGGFSSSSGRAIGGGLSSVGGGSSTIKYTTTSSSSRKSYKH

Variants of: B1
Details: with ikzf3_human IKZF3, Q9UKT9

Variant	effect of a mutation on the interaction
M448T	with no effect
R221H	disrupting interaction strength

Variants of: B1
Details: with kctd4_human KCTD4, Q8WVF5

Variant	effect of a mutation on the interaction
M448T	with no effect
R221H	disrupting interaction strength

Variants of: B1
Details: with rim3a_human RIMBP3, Q9UFD9
Chain of rim3a_human RIMBP3, Q9UFD9 (Q9UFD9 whole entry): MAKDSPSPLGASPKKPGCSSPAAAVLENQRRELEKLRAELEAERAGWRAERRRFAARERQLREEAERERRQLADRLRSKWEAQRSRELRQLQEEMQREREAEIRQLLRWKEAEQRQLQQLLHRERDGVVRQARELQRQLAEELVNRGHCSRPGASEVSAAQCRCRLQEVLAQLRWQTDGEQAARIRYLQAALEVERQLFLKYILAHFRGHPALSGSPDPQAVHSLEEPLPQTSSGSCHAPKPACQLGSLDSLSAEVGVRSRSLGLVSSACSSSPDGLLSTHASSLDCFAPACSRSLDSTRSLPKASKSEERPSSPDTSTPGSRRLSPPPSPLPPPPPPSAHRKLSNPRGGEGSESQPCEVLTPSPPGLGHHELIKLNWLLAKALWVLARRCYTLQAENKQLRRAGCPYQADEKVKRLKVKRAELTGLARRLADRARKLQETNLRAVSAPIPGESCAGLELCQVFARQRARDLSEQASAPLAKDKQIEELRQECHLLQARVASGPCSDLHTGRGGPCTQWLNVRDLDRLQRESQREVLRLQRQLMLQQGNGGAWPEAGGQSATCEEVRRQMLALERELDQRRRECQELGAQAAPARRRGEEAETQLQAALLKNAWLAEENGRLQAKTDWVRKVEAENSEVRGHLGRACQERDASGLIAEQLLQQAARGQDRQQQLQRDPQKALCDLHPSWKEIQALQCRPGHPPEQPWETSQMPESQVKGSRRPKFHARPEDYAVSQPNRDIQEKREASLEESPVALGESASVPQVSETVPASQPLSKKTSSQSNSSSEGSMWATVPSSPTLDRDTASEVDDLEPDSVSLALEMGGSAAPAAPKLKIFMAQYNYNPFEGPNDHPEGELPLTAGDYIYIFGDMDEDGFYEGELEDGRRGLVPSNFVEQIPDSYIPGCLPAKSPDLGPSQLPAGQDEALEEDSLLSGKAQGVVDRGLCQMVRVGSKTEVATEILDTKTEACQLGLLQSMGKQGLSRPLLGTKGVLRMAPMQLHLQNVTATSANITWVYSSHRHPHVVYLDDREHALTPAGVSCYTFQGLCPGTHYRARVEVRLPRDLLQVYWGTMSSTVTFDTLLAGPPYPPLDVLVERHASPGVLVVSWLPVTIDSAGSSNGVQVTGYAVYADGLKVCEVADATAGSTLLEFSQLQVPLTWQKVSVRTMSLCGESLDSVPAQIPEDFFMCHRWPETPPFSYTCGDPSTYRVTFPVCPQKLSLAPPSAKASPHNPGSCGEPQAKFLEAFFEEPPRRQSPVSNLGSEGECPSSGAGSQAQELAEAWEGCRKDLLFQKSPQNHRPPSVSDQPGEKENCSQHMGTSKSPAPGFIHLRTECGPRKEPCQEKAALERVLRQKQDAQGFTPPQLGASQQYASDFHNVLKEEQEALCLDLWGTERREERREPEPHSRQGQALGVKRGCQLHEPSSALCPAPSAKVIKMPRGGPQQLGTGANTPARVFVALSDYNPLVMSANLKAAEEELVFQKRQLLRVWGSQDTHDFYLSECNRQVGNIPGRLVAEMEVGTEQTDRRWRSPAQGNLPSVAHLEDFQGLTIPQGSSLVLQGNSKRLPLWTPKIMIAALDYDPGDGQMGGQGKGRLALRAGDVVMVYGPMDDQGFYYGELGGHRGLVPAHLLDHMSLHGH

Variant	effect of a mutation on the interaction
M448T	with no effect
R221H	disrupting interaction strength

Variants of: B1
Details: with trip6_human TRIP6, Q15654

Variant	effect of a mutation on the interaction
M448T	with no effect
R221H	disrupting interaction strength

Variants of: B1
Details: with KRT15, P19012
Target sequence in this assay (P19012 whole entry): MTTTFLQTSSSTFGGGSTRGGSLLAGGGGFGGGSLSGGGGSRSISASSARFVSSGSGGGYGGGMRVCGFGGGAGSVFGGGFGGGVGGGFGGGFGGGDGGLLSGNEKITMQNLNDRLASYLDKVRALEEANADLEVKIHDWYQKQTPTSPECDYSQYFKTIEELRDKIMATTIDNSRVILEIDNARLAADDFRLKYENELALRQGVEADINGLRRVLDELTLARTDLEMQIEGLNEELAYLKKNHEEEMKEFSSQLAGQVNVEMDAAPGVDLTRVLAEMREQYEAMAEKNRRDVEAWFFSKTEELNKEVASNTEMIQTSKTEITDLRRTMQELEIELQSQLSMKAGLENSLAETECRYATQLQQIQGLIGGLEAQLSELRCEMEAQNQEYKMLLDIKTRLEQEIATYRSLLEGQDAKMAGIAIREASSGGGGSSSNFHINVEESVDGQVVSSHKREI

Variant	effect of a mutation on the interaction
M448T	with no effect
R221H	disrupting interaction strength

Variants of: B1
Details: with TCF4, P15884-3

Variant	effect of a mutation on the interaction
M448T	with no effect
R221H	disrupting interaction strength

Variants of: B1
Details: with goga2_human GOLGA2, Q08379
Target sequence in this assay (Q08379 whole entry): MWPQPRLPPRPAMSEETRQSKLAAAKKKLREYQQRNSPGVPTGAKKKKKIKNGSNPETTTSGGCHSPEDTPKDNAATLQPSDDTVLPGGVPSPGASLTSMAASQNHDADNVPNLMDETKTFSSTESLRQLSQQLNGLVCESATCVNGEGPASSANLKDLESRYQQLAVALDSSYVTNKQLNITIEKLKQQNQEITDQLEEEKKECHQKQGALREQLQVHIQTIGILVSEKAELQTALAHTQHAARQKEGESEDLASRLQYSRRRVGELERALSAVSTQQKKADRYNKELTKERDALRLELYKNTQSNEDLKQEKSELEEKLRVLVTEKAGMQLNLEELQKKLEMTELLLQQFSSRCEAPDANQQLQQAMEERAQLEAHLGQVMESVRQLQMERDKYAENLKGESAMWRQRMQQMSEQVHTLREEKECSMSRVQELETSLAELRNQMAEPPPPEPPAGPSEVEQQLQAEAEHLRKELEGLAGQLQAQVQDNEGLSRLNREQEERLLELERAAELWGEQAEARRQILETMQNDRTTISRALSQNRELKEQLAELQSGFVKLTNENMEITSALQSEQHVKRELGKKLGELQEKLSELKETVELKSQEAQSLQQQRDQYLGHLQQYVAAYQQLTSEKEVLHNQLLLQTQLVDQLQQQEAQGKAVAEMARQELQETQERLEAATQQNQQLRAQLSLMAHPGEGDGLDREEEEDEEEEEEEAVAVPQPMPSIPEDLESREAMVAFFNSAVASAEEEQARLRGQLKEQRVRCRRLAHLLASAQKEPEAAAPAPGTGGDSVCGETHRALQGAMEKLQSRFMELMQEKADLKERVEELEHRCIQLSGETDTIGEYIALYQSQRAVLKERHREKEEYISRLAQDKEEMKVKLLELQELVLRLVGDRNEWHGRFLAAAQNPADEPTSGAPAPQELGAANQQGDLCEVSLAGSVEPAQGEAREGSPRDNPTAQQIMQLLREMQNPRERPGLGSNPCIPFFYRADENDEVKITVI

Variant	effect of a mutation on the interaction
M448T	with no effect
R221H	disrupting interaction strength

Variants of: B2
Details: with pls1_human PLSCR1, O15162

Variant	effect of a mutation on the interaction
F289L	with no effect

Variants of: B3
Details: with KRT15, P19012
Target sequence in this assay (P19012 whole entry): as the sequence (P19012 whole entry) above

Variant	effect of a mutation on the interaction
V523F	with no effect
T552S	with no effect
F249L	with no effect
N21S	with no effect

Variants of: B3
Details: with KRT40, Q6A162
Chain of KRT40, Q6A162 (Q6A162 whole entry): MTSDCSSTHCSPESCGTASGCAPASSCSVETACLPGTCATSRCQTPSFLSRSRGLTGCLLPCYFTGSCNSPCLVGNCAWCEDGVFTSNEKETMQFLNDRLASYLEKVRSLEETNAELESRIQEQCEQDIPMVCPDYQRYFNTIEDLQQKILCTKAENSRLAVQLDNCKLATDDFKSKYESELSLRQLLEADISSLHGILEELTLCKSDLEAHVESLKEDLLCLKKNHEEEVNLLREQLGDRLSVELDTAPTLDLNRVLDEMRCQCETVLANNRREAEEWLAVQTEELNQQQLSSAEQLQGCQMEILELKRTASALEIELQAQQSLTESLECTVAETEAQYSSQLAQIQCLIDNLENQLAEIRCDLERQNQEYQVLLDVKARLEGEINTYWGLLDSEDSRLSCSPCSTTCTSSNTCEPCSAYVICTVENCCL

Variant	effect of a mutation on the interaction
V523F	with no effect
T552S	with no effect
F249L	with no effect
N21S	with no effect
I462S	disrupting interaction strength

Variants of: B3
Details: with k1h1_human KRT31, Q15323
Chain of k1h1_human KRT31, Q15323 (Q15323 whole entry): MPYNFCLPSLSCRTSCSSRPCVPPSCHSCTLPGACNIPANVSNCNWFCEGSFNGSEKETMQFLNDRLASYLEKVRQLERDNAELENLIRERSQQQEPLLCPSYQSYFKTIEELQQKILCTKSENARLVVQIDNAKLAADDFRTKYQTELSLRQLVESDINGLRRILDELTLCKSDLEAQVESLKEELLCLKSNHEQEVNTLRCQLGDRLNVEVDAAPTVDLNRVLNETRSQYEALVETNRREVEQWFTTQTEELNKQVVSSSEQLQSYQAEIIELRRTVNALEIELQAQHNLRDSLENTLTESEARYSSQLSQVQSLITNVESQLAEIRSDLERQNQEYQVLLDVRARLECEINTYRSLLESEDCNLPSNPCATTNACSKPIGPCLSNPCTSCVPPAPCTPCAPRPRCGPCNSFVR

Variant	effect of a mutation on the interaction
V523F	with no effect
T552S	with no effect
F249L	with no effect
N21S	with no effect

Variants of: B3
Details: with tfp11_human TFIP11, Q9UBB9
Chain of tfp11_human TFIP11, Q9UBB9 (Q9UBB9 whole entry): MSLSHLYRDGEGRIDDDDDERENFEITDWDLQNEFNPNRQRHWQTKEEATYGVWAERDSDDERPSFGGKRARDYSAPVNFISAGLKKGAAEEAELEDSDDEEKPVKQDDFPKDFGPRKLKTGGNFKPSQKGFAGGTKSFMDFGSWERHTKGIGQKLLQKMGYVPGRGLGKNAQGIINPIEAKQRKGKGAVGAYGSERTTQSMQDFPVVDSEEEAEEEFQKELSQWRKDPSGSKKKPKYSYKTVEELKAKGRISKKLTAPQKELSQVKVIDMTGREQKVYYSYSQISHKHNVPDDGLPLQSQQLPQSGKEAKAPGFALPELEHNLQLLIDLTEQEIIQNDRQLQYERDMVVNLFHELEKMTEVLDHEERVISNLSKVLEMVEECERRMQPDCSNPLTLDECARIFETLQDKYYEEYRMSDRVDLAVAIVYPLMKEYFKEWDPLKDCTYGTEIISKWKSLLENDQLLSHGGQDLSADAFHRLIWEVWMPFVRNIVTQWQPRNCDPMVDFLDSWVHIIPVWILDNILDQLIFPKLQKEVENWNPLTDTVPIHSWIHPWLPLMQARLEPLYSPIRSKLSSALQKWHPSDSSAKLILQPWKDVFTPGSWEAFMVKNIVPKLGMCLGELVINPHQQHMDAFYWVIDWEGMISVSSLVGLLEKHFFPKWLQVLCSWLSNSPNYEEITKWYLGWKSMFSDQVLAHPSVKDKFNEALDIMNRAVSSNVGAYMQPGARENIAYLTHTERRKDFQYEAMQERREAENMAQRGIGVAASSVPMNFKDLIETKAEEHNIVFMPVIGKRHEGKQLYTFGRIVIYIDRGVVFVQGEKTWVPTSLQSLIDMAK

Variant	effect of a mutation on the interaction
V523F	with no effect
T552S	with no effect
F249L	with no effect
N21S	with no effect
I462S	disrupting interaction strength

Variants of: B3
Details: with goga2_human GOLGA2, Q08379
Target sequence in this assay (Q08379 whole entry): as the sequence (Q08379 whole entry) above

Variant	effect of a mutation on the interaction
V523F	with no effect
T552S	with no effect
F249L	with no effect
N21S	with no effect
F174V	with no effect
I462S	with no effect

Variants of: B3
Details: with KRT15, P19012
Remark: another data set of the same source
Target sequence in this assay (P19012 whole entry): as the sequence (P19012 whole entry) above

Variant	effect of a mutation on the interaction
F174V	with no effect
I462S	with no effect

Variants of: B3
Details: with KRT40, Q6A162
Remark: another data set of the same source

Variant	effect of a mutation on the interaction
F174V	with no effect
I462S	with no effect

Variants of: B3
Details: with k1h1_human KRT31, Q15323
Remark: another data set of the same source

Variant	effect of a mutation on the interaction
F174V	with no effect
I462S	with no effect

Variants of: B3
Details: with tfp11_human TFIP11, Q9UBB9
Remark: another data set of the same source

Variant	effect of a mutation on the interaction
F174V	with no effect
I462S	with no effect
